According to patent US6646113 (University of Pennsylvania, dated 2003):
Each block holds one binder with its values, some of them ahead of it.

Experiments:
[1] = biological target: T1, GST-SMN fusion protein (human, UniProt Q16637 1-294); assay: GST pull-down, 35S IVT protein (FIG. 44)
T1 construct: Recombinant from E. coli, immobilised on glutathione-Sepharose; also called GST-SMNwt; GST-SMN chimeric protein; not shown: glutathione S-transferase (GST) tag of vector pGEX-5X

[2] = biological target: T2, SMN, endogenous protein in human cell extracts (human, UniProt Q16637 2-294); assay: co-IP with 2B1 from transfected 293T cells, Western blot
T2 construct: also called Survival of Motor Neurons protein

[3] = biological target: T1, GST-SMN fusion protein; assay: GST pull-down, 35S IVT protein
[4] = biological target: T3, His-tagged SMNY272C, purified recombinant (human, UniProt Q16637 1-294); assay: in vitro binding of purified recombinant protein to GST-SIP1
T3 construct: also called His-SMNY272C; SMNY272C recombinant protein; not shown: His6 tag (pET28 vector)

[5] = biological target: T4, His-tagged SMN wild type, purified recombinant (human, UniProt Q16637 1-294); assay: as above
T4 construct: E. coli BL21(DE3)pLysS, nickel chelation chromatography; also called His-SMN; His6-SMN; not shown: His6 tag (pET28 vector, detected with anti-T7 tag antibody)

[6] = biological target: recombinant SMN protein (far-Western target) (human, UniProt Q16637 1-294, limits assumed); assay: far-Western with in vitro translated SIP1
[7] = biological target: T5, myc-tagged SMNY272C (human, UniProt Q16637 1-294); assay: co-IP with 2E17 from transfected 293T cells, Western blot
T5 construct: In vitro translated (35S) or expressed in 293T cells

[8] = biological target: T6, myc-tagged SMN wild type (human, UniProt Q16637 1-294); assay: co-IP with 2E17 from transfected 293T cells, Western blot (association in a complex)
T6 construct: In vitro translated (35S) or expressed in transfected 293T cells; also called myc-SMN; mycSMN

[9] = biological target: T2, SMN, endogenous protein in human cell …; assay: gel filtration (Superose 6 HR 10/30) of HeLa S100, Western blot
[10] = biological target: T7, GST alone (UniProt P08515 1-218 = GST); assay: GST pull-down, 35S IVT protein
T7 construct: Negative control on glutathione-Sepharose; also called glutathione S-transferase

[11] = biological target: Sm D1 protein, in vitro translated and 35S-labeled (UniProt P62314 1-119); assay: GST pull-down, 35S IVT protein

T1 sequence (Q16637 whole entry, the tested form may be a part): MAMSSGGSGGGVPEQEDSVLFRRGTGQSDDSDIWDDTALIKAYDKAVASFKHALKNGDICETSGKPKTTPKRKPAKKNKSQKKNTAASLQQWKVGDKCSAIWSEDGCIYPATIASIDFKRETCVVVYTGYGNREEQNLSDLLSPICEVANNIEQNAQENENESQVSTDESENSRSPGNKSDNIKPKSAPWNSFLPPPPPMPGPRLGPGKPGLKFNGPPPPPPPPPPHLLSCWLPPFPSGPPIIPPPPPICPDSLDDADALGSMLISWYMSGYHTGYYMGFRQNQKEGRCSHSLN
T2 sequence (Q16637 2-294 limits assumed): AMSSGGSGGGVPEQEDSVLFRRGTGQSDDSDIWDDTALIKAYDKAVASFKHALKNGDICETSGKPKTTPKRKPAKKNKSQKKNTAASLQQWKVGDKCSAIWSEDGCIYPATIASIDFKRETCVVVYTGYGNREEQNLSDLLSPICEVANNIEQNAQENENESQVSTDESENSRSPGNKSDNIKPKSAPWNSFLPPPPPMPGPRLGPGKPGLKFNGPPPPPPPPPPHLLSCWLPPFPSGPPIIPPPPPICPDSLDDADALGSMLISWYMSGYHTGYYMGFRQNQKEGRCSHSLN
T4 sequence (Q16637 whole entry): as the sequence (Q16637 whole entry, the tested form may be a part) above
Chain of recombinant SMN protein (far-Western target) (Q16637 whole entry): as the sequence (Q16637 whole entry, the tested form may be a part) above
T6 sequence (Q16637 whole entry): as the sequence (Q16637 whole entry, the tested form may be a part) above
T5 sequence (Q16637 whole entry Y272C): as the sequence (Q16637 whole entry, the tested form may be a part) above, with Y272C counted along it
T3 sequence (Q16637 whole entry Y272C): as the sequence (Q16637 whole entry, the tested form may be a part) above, with Y272C counted along it
T7 sequence (P08515 whole entry): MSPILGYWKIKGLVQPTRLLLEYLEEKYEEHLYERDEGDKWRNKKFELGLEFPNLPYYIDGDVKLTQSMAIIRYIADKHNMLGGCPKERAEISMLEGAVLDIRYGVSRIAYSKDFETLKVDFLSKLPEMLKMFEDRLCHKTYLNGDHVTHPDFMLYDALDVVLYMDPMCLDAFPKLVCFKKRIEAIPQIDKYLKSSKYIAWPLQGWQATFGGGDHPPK

B3: GST-SIP1 fusion protein (other, not shown: a dimerising Fc or GST)
chain: MRRAELAGLKTMAWVPAESAVEELMPRLLPVEPCDLTEGFDPSVPPRTPQEYLRRVQIEAAQCPDVVVAQIDPKKLKRKQSVNISLSGCQPAPEGYSPTLQWQQQQVAQFSTVRQNVNKHRSHWKSQQLDSNVTMPKSEDEEGWKKFCLGEKLCADGAVGPATNESPGIDYVQIGFPPLLSIVSRMNQATVTSVLEYLSNWFGERDFTPELGRWLYALLACLEKPLLPEAHSLIRQLARRCSEVRLLVDSKDDERVPALNLLICLVSRYFDQRDLADEPS
binding result [4]: binds | binding result [5]: binds

B4: myc-tagged SIP1 wild type (other, not shown: small tags and cut ends)
chain: B3 chain
notes: In vitro translated (35S) or expressed in 293T cells; also called myc-SIP1; myc-Gemin2
binding result [2]: binds

B5: SIP1 (human), in vitro translated and 35S-labeled (other)
chain: B3 chain
notes: Made in rabbit reticulocyte lysate; also called full-length SIP1; Gemin2
binding result [6]: binds

B6: SIP1 (Gemin2), endogenous protein in human cell extracts (other)
chain: B3 chain
binding result [7]: binds | binding result [8]: binds | binding result [9]: binds

Further lines, results first:

binding result [1]: no binding | binding result [2]: no binding
B1: myc-tagged SIP1ΔC89 (other, not shown: small tags and cut ends)
chain: MRRAELAGLKTMAWVPAESAVEELMPRLLPVEPCDLTEGFDPSVPPRTPQEYLRRVQIEAAQCPDVVVAQIDPKKLKRKQSVNISLSGCQPAPEGYSPTLQWQQQQVAQFSTVRQNVNKHRSHWKSQQLDSNVTMPKSEDEEGWKKFCLGEKLCADGAVGPATNESPGIDYVQIGFPPLLSIVSRMNQATV
notes: The whole entry must be cut by 89 residues at the C-terminus

binding result [3]: no binding
B2: myc-ΔN548Gemin3 (other, not shown: small tags and cut ends)
chain: SVQTPVENSTNSQHQVKEALPVSLPQIPCLSSFKIHQPYTLTFAELVEDYEHYIKEGLEKPVEIIRHYTGPGDQTVNPQNGFVRNKVIEQKVPVLASSSQSGDSESDSDSYSSRTSSQSKGNKSYLESSSDNQLKDSESTPVDDRISLEQPPNGTDTPNPEKYQESPGIQMKTRLKEGASQRAKQSRRNLPRRSSFRLQTEAQEDDWYDCHREIRLSFSDTYQDYEEYWRAYYRAWQEYYAAASHSYYWNAQRHPSWMAAYHMNTIYLQEMMHSNQ

binding result [10]: no binding
B7: myc-ΔN368C277Gemin3 (other, not shown: small tags and cut ends)
chain: TSRGIDAEKVNLVVNLDVPLDWETYMHRIGRAGRFGTLGLTVTYCCRGEEENMMMRIAQKCNINLLPLPDPIPSGLMEECVDWDVEVKAAVHTYGIASVPNQPLKKQIQKIERTLQIQKAHGDHMASSRNNSVSGLSVKSKNNTKQKLPVKSHSECGIIEKATSPKELGCDRQSEEQMK
notes: also called ΔN368C272Gemin3

binding result [11]: no binding
B8: GST-Gemin3 fusion protein (other)
chain: MAAAFEASGALAAVATAMPAEHVAVQVPAPEPTPGPVRILRTAQDLSSPRTRTGDVLLAEPADFESLLLSRPVLEGLRAAGFERPSPVQLKAIPLGRCGLDLIVQAKSGTGKTCVFSTIALDSLVLENLSTQILILAPTREIAVQIHSVITAIGIKMEGLECHVFIGGTPLSQDKTRLKKCHIAVGSPGRIKQLIELDYLNPGSIRLFILDEADKLLEEGSFQEQINWIYSSLPASKQMLAVSATYPEFLANALTKYMRDPTFVRLNSSDPSLIGLKQYYKVVNSYPLAHKVFEEKTQHLQELFSRIPFNQALVFSNLHSRAQHLADILSSKGFPAECISGNMNQNQRLDAMAKLKHFHCRVLISTDLTSRGIDAEKVNLVVNLDVPLDWETYMHRIGRAGRFGTLGLTVTYCCRGEEENMMMRIAQKCNINLLPLPDPIPSGLMEECVDWDVEVKAAVHTYGIASVPNQPLKKQIQKIERTLQIQKAHGDHMASSRNNSVSGLSVKSKNNTKQKLPVKSHSECGIIEKATSPKELGCDRQSEEQMKNSVQTPVENSTNSQHQVKEALPVSLPQIPCLSSFKIHQPYTLTFAELVEDYEHYIKEGLEKPVEIIRHYTGPGDQTVNPQNGFVRNKVIEQKVPVLASSSQSGDSESDSDSYSSRTSSQSKGNKSYLESSSDNQLKDSESTPVDDRISLEQPPNGTDTPNPEKYQESPGIQMKTRLKEGASQRAKQSRRNLPRRSSFRLQTEAQEDDWYDCHREIRLSFSDTYQDYEEYWRAYYRAWQEYYAAASHSYYWNAQRHPSWMAAYHMNTIYLQEMMHSNQ
notes: also called Gemin3-GST; not shown: glutathione S-transferase (GST) tag of vector pGEX-5X-3

binding result [1]: no binding
B9: myc-tagged SIP1ΔC162 (other, not shown: small tags and cut ends)
chain: MRRAELAGLKTMAWVPAESAVEELMPRLLPVEPCDLTEGFDPSVPPRTPQEYLRRVQIEAAQCPDVVVAQIDPKKLKRKQSVNISLSGCQPAPEGYSPTLQWQQQQVAQFSTVRQNVN
